Like-named read-outs stand apart in the source and are kept apart here.
What was measured:
Experiment in all cases: SPR
FcgRIIa R [1] = target: T1, FcgRIIa R (human, UniProt P12318)
T1 chain: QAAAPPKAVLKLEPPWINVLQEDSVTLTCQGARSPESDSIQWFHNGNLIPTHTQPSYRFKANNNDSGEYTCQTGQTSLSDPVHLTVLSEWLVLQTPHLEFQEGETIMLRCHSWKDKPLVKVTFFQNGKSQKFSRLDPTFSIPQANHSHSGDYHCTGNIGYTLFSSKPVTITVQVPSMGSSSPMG

FcgRIIIa F [2] = target: T2, FcgRIIIa F (human, UniProt P08637)
FcgRIa [3] = target: T3, FcgRIa (human, UniProt P12314)
T3 chain: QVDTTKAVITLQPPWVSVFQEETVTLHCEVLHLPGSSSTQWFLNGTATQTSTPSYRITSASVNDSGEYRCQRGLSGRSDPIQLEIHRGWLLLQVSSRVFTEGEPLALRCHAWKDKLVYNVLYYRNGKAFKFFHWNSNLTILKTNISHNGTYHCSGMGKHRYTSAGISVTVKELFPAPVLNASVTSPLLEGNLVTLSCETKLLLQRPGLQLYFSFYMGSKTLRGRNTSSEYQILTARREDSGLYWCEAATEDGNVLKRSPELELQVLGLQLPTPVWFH

FcgRIIIa V [4] = target: T4, FcgRIIIa V (human, UniProt P08637)
FcgRIIb [5] = target: T5, FcgRIIb (human, UniProt P31994)
T5 chain: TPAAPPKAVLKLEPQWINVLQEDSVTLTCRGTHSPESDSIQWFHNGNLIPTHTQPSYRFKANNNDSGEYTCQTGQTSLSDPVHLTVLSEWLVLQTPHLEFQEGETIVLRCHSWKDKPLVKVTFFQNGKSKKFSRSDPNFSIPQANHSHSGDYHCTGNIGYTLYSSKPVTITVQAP

FcgRIIa H [6] = target: T6, FcgRIIa H (human, UniProt P12318)
T6 chain: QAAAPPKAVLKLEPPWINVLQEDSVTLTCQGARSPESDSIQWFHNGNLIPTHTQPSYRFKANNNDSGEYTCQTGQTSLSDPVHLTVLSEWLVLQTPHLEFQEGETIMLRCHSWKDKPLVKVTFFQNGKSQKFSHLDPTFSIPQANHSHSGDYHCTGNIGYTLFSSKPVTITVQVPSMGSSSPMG

FcgRIIIa F [7] = target: T2, FcgRIIIa F; remark: listed apart in the source
FcgRIIa R [8] = target: T1, FcgRIIa R
FcgRIIa H [9] = target: T6, FcgRIIa H
FcgRIIb [10] = target: T5, FcgRIIb
FcgRIa [11] = target: T3, FcgRIa
FcgRIIIa V [12] = target: T4, FcgRIIIa V; remark: listed apart in the source
FcgRIIIa V [13] = target: T4, FcgRIIIa V; remark: listed apart in the source

T4 sequence (P08637 17-208 F176V): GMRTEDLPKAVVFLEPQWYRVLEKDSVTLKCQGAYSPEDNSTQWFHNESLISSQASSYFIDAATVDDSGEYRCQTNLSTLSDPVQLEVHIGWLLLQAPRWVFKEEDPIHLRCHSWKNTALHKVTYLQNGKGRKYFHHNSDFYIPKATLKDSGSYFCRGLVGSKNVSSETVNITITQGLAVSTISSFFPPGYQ
T2 sequence (P08637 17-208): as the sequence (P08637 17-208 F176V) above, with V160F counted along it

B1: H240-Kn072/H240-Hl076/L73-k0 (antibody)
chain 1: QDQLVQSGAEVKKPGASVKVSCKASGFNIKDTYIQWVRQAPGQGLEWMGRIDPLRKQTKYREKFEGRVTITADTSTNTAYMELSSLRSEDTAVYYCVRSGREFDYWGQGTLVTVSSASTKGPSVFPLAPSSKSTSGGTAALGCLVKDYFPEPVTVSWNSGALTSGVHTFPAVLQSSGLYSLSSVVTVPSSSLGTQTYICNVNHKPSNTKVDKKVEPKSCDKTHTCPPCPAPEYYWGPSVFLFPPKPKDTLMISRTPEVTCVVVDVSDEEPEVKFNWYVDGVEVHNAKTKPREEQYNATYRVVSVLTVLHQDWLNGKEYKCKVSNKALPAPIEKTISKAKGQPREPQVCTLPPSRDELTKNQVSLWCLVKGFYPSDIAVEWESNGQPENNYKTTPPVLDSDGSFFLYSKLTVDKSRWQQGNVFSCSVMHEALHNHYTQKSLSLSP
chain 2: QDQLVQSGAEVKKPGASVKVSCKASGFNIKDTYIQWVRQAPGQGLEWMGRIDPLRKQTKYREKFEGRVTITADTSTNTAYMELSSLRSEDTAVYYCVRSGREFDYWGQGTLVTVSSASTKGPSVFPLAPSSKSTSGGTAALGCLVKDYFPEPVTVSWNSGALTSGVHTFPAVLQSSGLYSLSSVVTVPSSSLGTQTYICNVNHKPSNTKVDKKVEPKSCDKTHTCPPCPAPELLGGPSVFLFPPKPKDTLMISRTPEVTCVVVDVSHEEPEVKFNWYVDGVEVHNAKTKPREEQYNSTYRVVSVLTVLHQDWLNGKEYKCKVSNDALPMPIEETISKAKGQPREPQVYTLPPSRCELTKNQVSLSCAVKGFYPSDIAVEWESNGQPENNYKTTPPVLDSDGSFFLVSKLTVDKSRWQQGNVFSCSVMHEALHNHYTQKSLSLSP
chain 3: DIQMTQSPSSLSASVGDRVTITCRASQDIHKYIAWYQQKPGQAPRLLIQYTSTLQPGVPSRFSGSGSGTDYTFTISSLQPEDIATYYCLQYEQLRTFGGGTKVEIKRTVAAPSVFIFPPSDEQLKSGTASVVCLLNNFYPREAKVQWKVDNALQSGNSQESVTEQDSKDSTYSLSSTLTLSKADYEKHKVYACEVTHQGLSSPVTKSFNRGEC
- Kd (FcgRIIa R [1]): 710 nM
- Kd (FcgRIIIa F [2]): 2.6 nM
- Kd (FcgRIa [3]): 0.1 nM
- Kd (FcgRIIIa V [4]): 1 nM
- Kd (FcgRIIb [5]): 5700 nM
- Kd (FcgRIIa H [6]): 130 nM

B2: GpH7-A53/GpH7-B78/GpL16-k0 (antibody)
chain 1: QVQLVQSGAEVKKPGASVTVSCKASGYTFTDYEMHWIRQPPGEGLEWIGAIDPKTGDTAYSESFQDRVTLTADKSTSTAYMELSSLTSEDTAVYYCTRFYSYTYWGQGTLVTVSSASTKGPSVFPLAPSSKSTSGGTAALGCLVKDYFPEPVTVSWNSGALTSGVHTFPAVLQSSGLYSLSSVVTVPSSSLGTQTYICNVNHKPSNTKVDKKVEPKSCDKTHTCPPCPAPELLGGPDVFLFPPKPKDTLMISRTPEVTCVVVDVSHEDPEVKFNWYVDGVEVHNAKTKPREEQYNSTYRVVSVLTVLHQDWLNGKEYKCKVSNKALPAPIEKTISKAKGQPREPQVYTLPPSRKELTKNQVSLTCLVKGFYPSDIAVEWESNGQPENNYKTTPPVLDSDGSFFLYSKLTVDKSRWQQGNVFSCSVMHEALHNRYTQKSLSLSP
chain 2: QVQLVQSGAEVKKPGASVTVSCKASGYTFTDYEMHWIRQPPGEGLEWIGAIDPKTGDTAYSESFQDRVTLTADKSTSTAYMELSSLTSEDTAVYYCTRFYSYTYWGQGTLVTVSSASTKGPSVFPLAPSSKSTSGGTAALGCLVKDYFPEPVTVSWNSGALTSGVHTFPAVLQSSGLYSLSSVVTVPSSSLGTQTYICNVNHKPSNTKVDKKVEPKSCDKTHTCPPCPAPELLGGPDVFLFPPKPKDTLMISRTPEVTCVVVDVSHEDPEVKFNWYVDGVEVHNAKTKPREEQYNSTYRVVSVLTVLHQDWLNGKEYKCKVSNKALPLPEEKTISKAKGQPREPQVYTLPPSRDELTKNQVSLTCLVKGFYPSDIAVEWESNGQPENNYKTTPPVLDSDGSFFLYSKLTVDKSRWQQGNVFSCSVMHEALHNHYTQESLSLSP
chain 3: DIVMTQSPLSLPVTPGEPASISCQASESLVHSNRNTYLHWYLQKPGQSPQLLIYKVSNRFSGVPDRFSGSGSGTDFTLKISRVEAEDVGVYYCSQNTHVPPTFGQGTKVEIERTVAAPSVFIFPPSDEQLKSGTASVVCLLNNFYPREAKVQWKVDNALQSGNSQESVTEQDSKDSTYSLSSTLTLSKADYEKHKVYACEVTHQGLSSPVTKSFNRGEC
- Kd (FcgRIIIa F [7]): 11 nM

B3: IL6R-BP253/IL6R-L (antibody)
chain 1: QVQLQESGPGLVKPSETLSLTCAVSGHSISHDHAWSWVRQPPGEGLEWIGFISYSGITNYNPSLQGRVTISRDNSKNTLYLQMNSLRAEDTAVYYCARSLARTTAMDYWGEGTLVTVSSASTKGPSVFPLAPSSKSTSGGTAALGCLVKDYFPEPVTVSWNSGALTSGVHTFPAVLQSSGLYSLSSVVTVPSSSLGTQTYICNVNHKPSNTKVDKKVEPKSCDKTHTCPPCPAPELLGGPSVFLFPPKPKDTLMISRTPEVTCVVVDVEHEDPEVKFNWYVDGVEVHNAKTKPREEQYNSTYRVVSVLTVLHQDWLNGKEYKCKVSNKAFPAPIEKTISKAKGQPREPQVYTLPPSRDELTKNQVSLTCLVKGFYPSDIAVEWESNGQPENNYKTTPPVLDSDGSFFLYSKLTVDKSRWQQGNVFSCSVMHEALHNHYTQESLSLSP
chain 2: not shown
- Kd (FcgRIIa R [8]): 2.3 nM
- Kd (FcgRIIa H [9]): 860 nM
- Kd (FcgRIIb [10]): 8.9 nM
- Kd (FcgRIa [11]): 0.05 nM
- Kd (FcgRIIIa V [12]): 400 nM
- Kd (FcgRIIIa V [13]): 7100 nM
